Laboratory results published in patent US20100298225A1, “PEPTIDE GAP JUNCTION MODULATORS” (published 2010).

B1: Compound 2512 (peptide)
peptide: Ac-RRNYVPRRNY-NH2
B2: Compound 2497 (peptide)
peptide: Ac-RRNYRRNY-NH2
B3: Compound 2506 (peptide)
peptide: Ac-RRNYSAVPFYSHSRRNY-NH2
B4: Compound 2507 (peptide)
peptide: Ac-RRNYSHSRRNY-NH2
B5: Compound 2511 (peptide)
peptide: Ac-RRNYAVPFRRNY-NH2
B6: Compound 2509 (peptide)
peptide: Ac-RRNYGGGRRNY-NH2
B7: Compound 2496 (peptide)
peptide: Ac-YNRRGGGSAVPFYSHSYNRR-NH2
B8: Compound 2508 (peptide)
peptide: Ac-RRNYGGGSAVPFYRRNY-NH2
B9: Compound 2510 (peptide)
peptide: Ac-RRNYGGSAVPFYSHRRNY-NH2
B10: Compound 2498 (peptide)
peptide: Ac-RRNY-NH2
B11: Compound 2499 (peptide)
peptide: Ac-YNRR-NH2

What follows are binders tested against T1, Recombinant Cx43CT (carboxyl terminal domain of connexin43, sequence 255-382 of rCx43 preceded by GPLG) (rat, UniProt P08050) (assay: SPR, Cx43CT immobilised, peptide at 250 uM).
Protocol: (§1) Recombinant Cx43CT was covalently bound to a carboxylmethyl dextran matrix (Salamon et al., “Surface Plasmon Resonance Spectroscopy as a Tool for Investigating the Biochemical and Biophysical Properties of Membrane Protein Systems. II: Applications to Biological Systems,” Biochim. Biophys. Acta 1331(2):131-152 (1997), which is hereby incorporated by reference in its entirety). Specific peptides were presented and, when feasible, dissociation constants (KD) were calculated from the time course of binding and unbinding of the ligand, using a 1:1 (Langmuir) association and dissociation kinetic model (Biacore software package). In both phases (association and dissociation), the first 5-8 seconds of recording were not included in the fit, to avoid artifacts resulting from peptide distribution within the flow cells (Lang et al., “Surface Plasmon Resonance as a Method to Study the Kinetics and Amplitude of Protein-protein Binding,” in PRACTICAL METHODS IN CARDIOVASCULAR […] 936-947 (Stefan Dhein, Friedrich Wilhelm Mohr & Mario Delmar eds., 2005), which is hereby incorporated by reference in its entirety).
(§2) The peptides shown in table 2 and 3 were tested for binding to the carboxyl terminal domain (CT) of Cx43 using Surface Plasmon Resonance (“SPR”). SPR is a method that was used to identify the original RXPE sequence (Shibayama et al., “Identification of a Novel Peptide that Interferes with the Chemical Regulation of Connexin-43,” Circ. Res. 98:1365-72 (2006)).

T1 sequence (P08050 other isoform, or with tags, fused parts or gaps limits assumed): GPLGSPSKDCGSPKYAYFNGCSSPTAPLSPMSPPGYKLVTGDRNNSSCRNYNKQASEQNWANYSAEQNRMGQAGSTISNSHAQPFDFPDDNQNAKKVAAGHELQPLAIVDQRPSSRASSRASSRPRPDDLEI

SPR respons at 250 uM [arbitrary units]	Binder
117	B1
202	B2
327	B3
254	B4
214	B5
148	B6
358	B7
285	B8
332	B9

These binders were tested against T1, Recombinant Cx43CT (carboxyl terminal …) (assay: SPR, Cx43CT immobilised, peptide at 500 uM).
Protocol: as §1, §2

SPR respons at 500 uM [arbitrary units]	Binder
227	B1
328	B2
562	B3
438	B4
390	B5
281	B6
50.9	B10
739	B7
547	B8
643	B9

The binders below were run against T1, Recombinant Cx43CT (carboxyl terminal …) (assay: SPR, Cx43CT immobilised, peptide at 1 mM, response normalised on Mw).
Source text: (§3) Biophys. […] Commun. 8(4-6):225-229 (2001); Lang et al., “Surface Plasmon Resonance as a Method to Study the Kinetics and Amplitude of Protein-protein Binding,” in PRACTICAL METHODS IN CARDIOVASCULAR […] 936-947 (Stefan Dhein, Friedrich Wilhelm Mohr & Mario Delmar eds., 2005), which are hereby incorporated by reference in their entirety). Recombinant Cx43CT was covalently bound to a carboxylmethyl dextran matrix (Salamon et al., “Surface Plasmon Resonance Spectroscopy as a Tool for Investigating the Biochemical and Biophysical Properties of Membrane Protein Systems. II: Applications to Biological Systems,” Biochim. Biophys. Acta 1331(2):131-152 (1997), which is hereby incorporated by reference in its entirety). Specific peptides were presented and, when feasible, dissociation constants (KD) were calculated from the time course of binding and unbinding of the ligand, using a 1:1 (Langmuir) association and dissociation kinetic model (Biacore software package). In both phases (association and dissociation), the first 5-8 seconds of recording were not included in the fit, to avoid artifacts resulting from peptide distribution within the flow cells (Lang et al., “Surface Plasmon Resonance as a Method to Study the Kinetics and Amplitude of Protein-protein Binding,” in PRACTICAL METHODS IN CARDIOVASCULAR […] 936-947 (Stefan Dhein, Friedrich Wilhelm Mohr & Mario Delmar eds., 2005), which is hereby incorporated by reference in its entirety).
(§4) The peptides shown in table 2 and 3 were tested for binding to the carboxyl terminal domain (CT) of Cx43 using Surface Plasmon Resonance (“SPR”). SPR is a method that was used to identify the original RXPE sequence (Shibayama et al., “Identification of a Novel Peptide that Interferes with the Chemical Regulation of Connexin-43,” Circ. Res. 98:1365-72 (2006)). The amplitude of the response is also a function of the mass of the ligate, and the normalized data according to the individual peptide Mw's are shown in table 3.

SPR normalised on Mw at 1 mM	Binder
10.7 (SPRrespons*100)/Mw	B11
27.5 (SPRrespons*100)/Mw	B1
45.7 (SPRrespons*100)/Mw	B2
53 (SPRrespons*100)/Mw	B3
45.4 (SPRrespons*100)/Mw	B4
41.9 (SPRrespons*100)/Mw	B5
34 (SPRrespons*100)/Mw	B6
14 (SPRrespons*100)/Mw	B10
58.8 (SPRrespons*100)/Mw	B7
49.4 (SPRrespons*100)/Mw	B8
53 (SPRrespons*100)/Mw	B9

The binders below were run against T1, Recombinant Cx43CT (carboxyl terminal …) (assay: SPR, Cx43CT immobilised, peptide at 250 uM, response normalised on Mw).
Source text: as §3, §4

SPR normalised on Mw at 250 uM	Binder
8.2 (SPRrespons*100)/Mw	B1
16.3 (SPRrespons*100)/Mw	B2
14.8 (SPRrespons*100)/Mw	B3
16.4 (SPRrespons*100)/Mw	B4
13 (SPRrespons*100)/Mw	B5
10.5 (SPRrespons*100)/Mw	B6
15 (SPRrespons*100)/Mw	B7
13.7 (SPRrespons*100)/Mw	B8
14.8 (SPRrespons*100)/Mw	B9

Each binder was assayed against T1, Recombinant Cx43CT (carboxyl terminal …) (assay: SPR, Cx43CT immobilised, peptide at 100 uM).
Protocol: as §1, §2

SPR respons at 100 uM [arbitrary units]	Binder
50.7	B1
84.2	B2
117	B3
114	B4
90.5	B5
62.5	B6
156	B7
122	B8
176	B9

These binders were tested against T1, Recombinant Cx43CT (carboxyl terminal …) (assay: SPR, Cx43CT immobilised, peptide at 100 uM, response normalised on Mw).
Source text: as §3, §4

SPR normalised on Mw at 100 uM	Binder
3.5 (SPRrespons*100)/Mw	B1
6.8 (SPRrespons*100)/Mw	B2
5.3 (SPRrespons*100)/Mw	B3
7.3 (SPRrespons*100)/Mw	B4
5.5 (SPRrespons*100)/Mw	B5
4.4 (SPRrespons*100)/Mw	B6
6.5 (SPRrespons*100)/Mw	B7
5.9 (SPRrespons*100)/Mw	B8
7.9 (SPRrespons*100)/Mw	B9

The binders below were run against T1, Recombinant Cx43CT (carboxyl terminal …) (assay: SPR, Cx43CT immobilised, peptide at 25 uM).
Protocol: as §1, §2

SPR respons at 25 uM [arbitrary units]	Binder
14.8	B1
30.2	B2
51.7	B3
42.3	B4
16.2	B5
21.5	B6
67.7	B7
31.1	B8
40.3	B9

The binders below were run against T1, Recombinant Cx43CT (carboxyl terminal …) (assay: SPR, Cx43CT immobilised, peptide at 25 uM, response normalised on Mw).
Source text: as §3, §4

SPR normalised on Mw at 25 uM	Binder
1 (SPRrespons*100)/Mw	B1
2.4 (SPRrespons*100)/Mw	B2
2.3 (SPRrespons*100)/Mw	B3
2.7 (SPRrespons*100)/Mw	B4
1 (SPRrespons*100)/Mw	B5
1.5 (SPRrespons*100)/Mw	B6
2.8 (SPRrespons*100)/Mw	B7
1.5 (SPRrespons*100)/Mw	B8
1.8 (SPRrespons*100)/Mw	B9

Each binder was assayed against T1, Recombinant Cx43CT (carboxyl terminal …) (assay: SPR, Cx43CT immobilised, peptide at 500 uM, response normalised on Mw).
Source text: as §3, §4

SPR normalised on Mw at 500 uM	Binder
15.9 (SPRrespons*100)/Mw	B1
26.5 (SPRrespons*100)/Mw	B2
25.4 (SPRrespons*100)/Mw	B3
28.3 (SPRrespons*100)/Mw	B4
23.6 (SPRrespons*100)/Mw	B5
19.9 (SPRrespons*100)/Mw	B6
7.9 (SPRrespons*100)/Mw	B10
31 (SPRrespons*100)/Mw	B7
26.4 (SPRrespons*100)/Mw	B8
28.7 (SPRrespons*100)/Mw	B9

The binders below were run against T1, Recombinant Cx43CT (carboxyl terminal …) (assay: SPR, Cx43CT immobilised, peptide at 1 mM).
Protocol: as §1, §2

SPR respons at 1 mM [arbitrary units]	Binder
69.4	B11
395	B1
565	B2
1170	B3
703	B4
692	B5
479	B6
91	B10
1400	B7
1020	B8
1190	B9
